Results reported in patent US20190202896A1 (NOVOBIND LIVESTOCK THERAPEUTICS, published 2019).
Changes are numbered by the printed parent chain.

T1: FimA (Salmonella Type-1 fimbrial protein, A chain), recombinant (Salmonella (serovar ), UniProt P37921 23-185)
T1 sequence: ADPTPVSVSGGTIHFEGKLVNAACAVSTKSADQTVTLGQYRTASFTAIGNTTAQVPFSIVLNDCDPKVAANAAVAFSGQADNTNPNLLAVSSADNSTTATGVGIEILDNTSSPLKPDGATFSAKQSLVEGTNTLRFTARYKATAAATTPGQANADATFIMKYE

B1: NBX0201 (VHH)
VHH: QVQLQESGGGLVQAGGSLRLSCAASTRTSSSSYTAWFRQAPGNEREFVASISYSGTTTYYADPVKGRFTISRDSAKNTVYLQMNSLKPDDTAVYYCAADRRSTIGSPRQQYAYWGQGTQVTVSS
notes: also called Clone 98
B2: NBX0202 (VHH)
VHH: B1 VHH with T26G, S32A, Y53W, Y60H, D62H, S71F, S74N, A92G, S106T, Q109E
notes: also called Clone 99
B3: NBX0203 (VHH)
VHH: B1 VHH with E6Q, T26G, S30P, Y53W, S74N
notes: also called Clone 100

molecular target: T1, FimA (Salmonella Type-1 fimbrial …); assay: phage ELISA, antigen-coated wells, anti-M13-HRP, A405

Binder	binding over background (PBS-only wells) [fold]
B1	≥ 4
B2	≥ 4
B3	≥ 4
